Laboratory results from PMC6271940.

T1: angiotensin I-converting enzyme (UniProt P12822)
T1 sequence: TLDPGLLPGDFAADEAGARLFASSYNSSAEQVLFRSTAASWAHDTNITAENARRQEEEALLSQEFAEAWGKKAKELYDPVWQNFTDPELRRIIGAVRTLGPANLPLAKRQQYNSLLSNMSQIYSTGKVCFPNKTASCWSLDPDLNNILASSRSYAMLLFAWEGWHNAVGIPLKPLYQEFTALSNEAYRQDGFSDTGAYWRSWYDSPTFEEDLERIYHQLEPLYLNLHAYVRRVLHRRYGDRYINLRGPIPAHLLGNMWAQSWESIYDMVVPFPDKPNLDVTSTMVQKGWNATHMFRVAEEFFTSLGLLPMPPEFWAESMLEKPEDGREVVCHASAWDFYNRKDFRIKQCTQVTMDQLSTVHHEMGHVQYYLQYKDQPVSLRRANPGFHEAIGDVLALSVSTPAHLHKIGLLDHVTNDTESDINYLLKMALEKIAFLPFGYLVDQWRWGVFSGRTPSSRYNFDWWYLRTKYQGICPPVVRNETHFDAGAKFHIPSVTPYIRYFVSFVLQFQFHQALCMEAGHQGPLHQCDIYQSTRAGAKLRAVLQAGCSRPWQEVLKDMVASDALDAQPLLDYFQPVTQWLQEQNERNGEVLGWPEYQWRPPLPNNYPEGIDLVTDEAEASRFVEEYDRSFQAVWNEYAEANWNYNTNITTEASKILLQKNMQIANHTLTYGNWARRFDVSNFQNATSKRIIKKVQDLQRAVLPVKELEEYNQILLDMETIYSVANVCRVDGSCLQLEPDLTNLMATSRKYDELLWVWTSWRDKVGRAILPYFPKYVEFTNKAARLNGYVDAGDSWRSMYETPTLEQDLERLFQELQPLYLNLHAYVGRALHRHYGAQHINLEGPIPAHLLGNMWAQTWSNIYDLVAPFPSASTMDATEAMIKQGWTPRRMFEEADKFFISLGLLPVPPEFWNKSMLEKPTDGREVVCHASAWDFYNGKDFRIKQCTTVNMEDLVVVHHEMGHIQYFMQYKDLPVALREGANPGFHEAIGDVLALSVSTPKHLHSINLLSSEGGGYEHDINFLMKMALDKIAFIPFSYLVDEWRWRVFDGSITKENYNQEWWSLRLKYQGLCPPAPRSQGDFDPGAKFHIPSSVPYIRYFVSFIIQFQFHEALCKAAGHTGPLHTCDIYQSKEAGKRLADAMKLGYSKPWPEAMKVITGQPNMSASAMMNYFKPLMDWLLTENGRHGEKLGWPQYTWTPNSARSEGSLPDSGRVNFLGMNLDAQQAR


Target: T1, angiotensin I-converting enzyme

Molecule	ACE inhibitory activity (release of hippuric acid from HHL, HPLC at 228 nm; 50 mM borate, 0.3 M NaCl, pH 8.3, 37 °C, 60 min), IC50 [μM]
VKP (peptide)	1.3
VKCFR	34.5
